Laboratory results as given in US6307020A, “Intracellular antifreeze polypeptides and nucleic acids” (HSC Research and Development Ltd. Partnership, priority 1998, dated 2001).

Experiments:
[1] = Circular dichroism and thermal denaturation of liver and skin AFPs; assay type: physicochemical; settings: for Tm (temperature at which fraction helix is 0.5): thermal denaturation 0-60° C., CD
Protocol: CD spectra were measured using a Jasco J-600 spectropolarimeter. A water-jacketed (0.1 cm) quartz cell was used. Concentrations of peptides were calculated from UV-absorbance at 230 nm (OD230 =6.1 mM/L peptide-bonds). The concentrations of peptides for CD measurement were between 0.1-0.2 mg/ml in 0.1M NH4 HCO3, pH 8.5. Thermal denaturation of the peptides were measured by varying temperatures from 0-60° C. with a 5° C. step gradient. After CD measurement at 60° C., the samples were cooled to 0° C. and the extent of refolding was determined. The mean residue ellipticity at a given wavelength [q]1 was expressed in degree cm^2 dmol^-1. Fraction helix was calculated as described by Greenfield and Fasman (1969) Biochemistry 8, 4108-4116, employing 222 nm instead of 208 nm: [formula]
The ellipticity [q]222^coil of each peptide in 6.0 M guanidine hydrochloride at 25° C. was assumed to represent 0% helix formation, and the ellipticity for [q]222^helix 100% helix formation was calculated from J. T. Yang et al. (1986) Methods in Enzymology 130, 208-269: [q]^n= [q]^.infin. (1-k/n); where n is the chain length and k is a wavelength-dependent factor (at 222 nm k=2.5 and [q].infin.=-37,400 degree cm^2 dmol^-1).

[2] = Antifreeze activity measured as thermal hysteresis with a Clifton Nanoliter Osmometer; assay type: physicochemical
Protocol: The preferred method of measuring the activity of a skin type AFP is to measure the thermal hysteresis (the difference between the melting and freezing temperatures) of an aqueous solution containing the AFP. This can be done by performing a serial dilution of the AFP-containing aqueous solution, followed by cooling the solution gradually and monitoring the freezing point of the solution. Typically, this is performed using commercially available equipment designed specifically for this purpose, such as nanoliter osmoineter. See, Kao et al. (1986) Can. J. Zool. 64:578-582. A preferred osmometer is the Clifton Nanoliter Osmoineter (Clifton Technical Physics, Hartford, N.Y.). Instructions for using the equipment to perform thermal hysteresis are available from the manufacturer. […]
The activity of a skin-type AFP can be measured using a nanoliter osmometer. Antifreeze activity was measured as thermal hysteresis (the difference between the melting and freezing temperatures), essentially following the procedure of Chakrabartty et al. (1989) J. Biol. Chem. 264: 11313-11316. Proteins were dissolved in 0.1 M NH4 HCO3 and their concentrations were determined by duplicate amino acid analyses. […]
Antifreeze activity was measured as thermal hysteresis (difference between the melting and freezing temperatures) essentially following the procedure of Chakrabartty et al. (1989) J. Biol. Chem. 264, 11307-11312. […]

## sAFP2: skin-type AFP from winter flounder, MDAPAKAAAA TAAAAKAAAEA TAAAAAKAAAA TKAGAAR, SEQ ID NO: 18; identical to protein encoded by F2 (MDAPAKAAAATAAAAKAAAEATAAAAAKAAAATKAGAAR)
[1]; 0° C., pH 8.5, 0.1M NH4HCO3, calculated from ellipticity at 222 nm
  Fraction Helix: 0.61
[1]; at 0° C.
  helical content by circular dichroism: 61%
[1]; measured at 0° C., pH 8.5, 0.1M NH4HCO3
  [Θ]222 mean residue ellipticity: -21,677 deg cm^2 dmol^-1
[1]
  Tm (temperature at which fraction helix is 0.5): 12 °C
[1]; listed as SAFP2
  Tm (temperature at which fraction helix is 0.5): 12.0 °C
[2]; dilutions 0.1 to 7.0 mM in 0.1 M NH4HCO3, FIG. 3
  antifreeze activity (thermal hysteresis) compared with serum AFP HPLC-6: less than half of that observed for HPLC-6
[2]; nanoliter osmometer, 0.1 M NH4HCO3
  antifreeze activity of GST-sAFP2 fusion protein compared with sAFP2: indistinguishable
